According to patent US20040106569:
Marks after values point to notes of the source that are not given here.

Columns and labels:
[1] = test system: myelin basic protein
[2] = test system: GST-GSK3 fusion protein (Cell Signaling Technology)

Row | Substance | Activity (phosphorylation of MPB) [1] | radioactive in vitro kinase assay, 32P incorporation by autoradiography (FIG. 11B) [1] | non-radioactive in vitro kinase assay, phosphorylated substrate detected by Western blot [2]
1 | PKNbeta kinase domain comprising amino acids 535-889 | +* | the full length wildtype protein kinase N beta as well as the kinase domain show activity | Only the full length wildtype protein kinase N beta or the kinase domain as defined in example 9 were suitable to phosphorylate the substrate
2 | PKNbeta kinase domain having a mutation at position 588 from lysine to arginine | -* | – | –
3 | PKNbeta kinase domain having a mutation at position 588 from lysine to glutamic acid | -* | – | –
4 | PKNbeta kinase domain with threonine 718 changed to alanine | -* | – | –
5 | PKNbeta kinase domain with threonine 718 changed to aspartic acid | -*! | – | –
6 | PKNbeta kinase domain with threonine 718 changed to glutamic acid | -*! | – | –
